Source: the nanobody polyreactivity screen of Harvey et al. (2022)

Assay: yeast display, Sf9 membrane polyspecificity reagent, FACS + sequencing; frameworks hold sequencing errors
Procedure, shortened: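 Polyreactivity labels are assigned by the sorting gate from which each nanobody was recovered. The gates were low and high (top ~1%), set on anti-HA fluorescence for expression and streptavidin fluorescence for reagent binding. Before sorting, galactose-induced (36–48 hours) yeast display cells were stained for 1 hour at 4 °C with 10% biotinylated, detergent-solubilized Sf9 membrane reagent.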

For “QVQLVESGGGLVQAGGSLRLSCAASGRIFFDYAMGSYRQAPGKEWVLVAAINRGGRTYYADSVKGRFTMSRDNAKNTVYLPMNTLKPEDTAVYYCPADGQTAKSNFAYWGQRTQVTVSS”, which “polyreactivity (PSR sort gate)” value is on record?
The value was “low polyreactivity”.

With “QVQHVESGGGLVQAGGSLRLSCAASGSTFHLYAIGWYRQAPGKEREFVAAIRGRGGNTYADSVKGRFTISRDNAKNTVYLQMNSVKPEDTAVYSCAAPLLRDLRSPYSYNYWGQGTQVTVSS” as the sequence, how does the “polyreactivity (PSR sort gate)” value read?
Its value is “low polyreactivity”.

For “QVQLVESGGGLVQAGGSLRLSCAASGRIFYYYTMGWYRQAPGKERELVARINSSGSTNLRRLCEGALHNFTRQCEEYRLFTDEQPETGRYRVYYCNADTKRSSREYDYWGQGTQVTVSS”, which “polyreactivity (PSR sort gate)” value is on record?
Its value is “low polyreactivity”.

Which “polyreactivity (PSR sort gate)” value does the source give for “QVNLVESGGGLVQAGGSLRLRCAASGSIYISYAMGWYRQAPGKERELVATIRSSGGRTHYSDSVKGRFTISRDNAKNTVYLQMNSLKPEDTPVYYCHYGVYQYPQDYDYWGEGTQVTVSS” here?
The value was “low polyreactivity”.

For “QVLLVESGGCLVQAGGILRLSCAASGIIFRSNVMGWYRQEPGKASELVAAISTGGGRTYYADSVKGRFTISRDNAKNTVYLQMNSLKPEDTAVYYCATRDIGKQWTRYYYWGQGTQVTVSS”, which “polyreactivity (PSR sort gate)” value is on record?
The value was “high polyreactivity”.

With “QVQLVESGGGLVQAGGSLRLSCAASGLTCSRYAMGWYRQAPGKERELVASISQGGGSTYYADSVKGRFTISRDNAKNTVYLQMTSLKPEDTAVYYCAASWYYSLQRYGYWGQGTQVTVSS” as the sequence, how does the “polyreactivity (PSR sort gate)” value read?
The value was “high polyreactivity”.

With “QVQLVESGGGLVQAGGSLRLSCAASGSIFAYYTMGWYRQAHGKERELVAAISRSGGSTNYADSVKGRFTISRDNAKNTVYLQMNSLKPEDTAVYYCAVRRYSRRLFGYYYWGQGTQVTVSS” as the sequence, how does the “polyreactivity (PSR sort gate)” value read?
The value was “high polyreactivity”.

Which “polyreactivity (PSR sort gate)” value does the source give for “QIQLVESGGGLLQAGGSLGLSCAASGSIFVKYAMGWYRQAPGKERELVAAITTGVGSTYYADSVKGRFTISRDNAKNTVYLQMNSVKPEDSAVFYWNAYAYFGPWWSFRATYDYWGQGTQVTVSS” here?
Its value is “low polyreactivity”.

Which “polyreactivity (PSR sort gate)” value does the source give for “QVQLVESGGGLVQAGGSLRLSCAASGITSSAYAMGWYRQAPGKERELVARITWSGGRTHYADSVKGRFTISRDNAKNTVYLQMNSLKPEDTAVYYGYWLGYKEDDYWGQGTQVTVSS” here?
The value was “high polyreactivity”.

With “QVQLVESGGGLVQAGGSLRLSCAASGITFDENTMGWYRQGPGKERELVAAITEIGGSTYYADSVKGRFTISRDNAKNTVYLQMHSLKPEDTAVYYCNAARWVGRFVDYEYWGQGTQVTVSS” as the sequence, how does the “polyreactivity (PSR sort gate)” value read?
Its value is “low polyreactivity”.

With “QVQLVESGGGLVQAGGSLRLSCAASGSTQYKYAMGWNRQAPGKERELVAAISWSGSSTYYADSVKGRFTISRDNAKNTVYLQLNSLKREDTAVYYCAAYPRPYIGYTDGYVWYEFDYWGQGTQVTVSS” as the sequence, how does the “polyreactivity (PSR sort gate)” value read?
The value was “low polyreactivity”.

With “QVQLVESGGGLVQAGGSLRLSCAASGRIFDLNTMGWYRQAPGKERELVAAISSGGSTYYADSVKGRFTISRDNAKNTVYLQMNSLKPEDTAVYYCAADKIRGYRIRMYWGQGTQVTVSS” as the sequence, how does the “polyreactivity (PSR sort gate)” value read?
The value was “low polyreactivity”.

Which “polyreactivity (PSR sort gate)” value does the source give for “QVHLVESGGGIDQAGGSLRLSCAASGSIFRNYAMAWKRQAPGKERELVAFITRGGSTYYADSVKVRFTISRDNAKNTVYFQMNSLKPEHTAVYYCAADFWPAGLDLGYWGQGTQVTLSS” here?
The value was “low polyreactivity”.

Which “polyreactivity (PSR sort gate)” value does the source give for “QVQLVDSGGGLVQAGGSLRLSFAASGRIFAGYAMGWYRQAPGKERELVASIRYSGGSTYADSVKGRFTISRDNAKKTVYLQMNSLKPEDTAVYYSADGVQSVYNGEPGIILEFDYWGQGTQVTVSS” here?
The value was “low polyreactivity”.

With “QVQLVESGGGLVQAGGSLRLSCAASGRTFIYYAMGWYRQAPGKERELVAVITGGGSTNYADSVKGRFTISRDNAKNTVYLQMNSLKPEDTAVYYCNRDYDASHTSREPLVGYDYWGQGTQVTVSS” as the sequence, how does the “polyreactivity (PSR sort gate)” value read?
The value was “low polyreactivity”.

For “QVQLVESGGGLVQAGGSLRLSCAASGLIFSTNDMGWYRQAPGKERELVAAITSDVSTYYADSVKGRFTISRDNAKNTVYLQMNSLEPEDTAVYYCAKDDSGYINWRYDYWGQGTQVTVSS”, which “polyreactivity (PSR sort gate)” value is on record?
Its value is “low polyreactivity”.

Which “polyreactivity (PSR sort gate)” value does the source give for “QVQLVESGGGLVQAGGSLRLSCAASGFTLTGNAMGWYRQAPGKERELVAAISRNGGSTFYADSVKGRFTISRDNAKNTVYLQMNSLKPEDTAVYYCNASRFRHSAYKYDSWGQGTQVTVSS” here?
Its value is “high polyreactivity”.

With “QVQLVESGGGLVQAGGSLRLSCAASGSTYSWYAMGWYRQAPGKERELVASISWRGGSTYYADSVKGRFTISRDNAKNTVYLQMNSLKPEDTAVYYCAADYYWKLFHEPPAVYDYDYWGQCTQVTVSS” as the sequence, how does the “polyreactivity (PSR sort gate)” value read?
Its value is “low polyreactivity”.

With “QVQLVESGGGLVQAGGSLRLSCAASGRTFYKYAMGWYRQAPGKERELVAVINWSGGRTYADSVKGRFTISRDNAKNTVYLQMNSLKPEDTAVYYCNAESYEFHRAWGDYDYWGQGTQVTVSS” as the sequence, how does the “polyreactivity (PSR sort gate)” value read?
The value was “low polyreactivity”.

Which “polyreactivity (PSR sort gate)” value does the source give for “QVQLVESAGGVVQAGGSLRLSCAPSGRTFYPYVMGCYRTAPGKERELVARIRWSGSSTYYADSEKGRFTISRDNAKNTVYLQMNSLKPEDTAVYYCNARPSWYVFGSSVHSGMGYWGQGTQVTVSS” here?
The value was “high polyreactivity”.

For “QVQLVESGGGLVQAGGSLRLSCAASGSIVGYYAMGWYRQAPGKEREFVARISSSTDSTYYADSVKGRFTISRDNAKKTVYLQMNSLKPEDTAVYYCNADDTWYYGYWGQGTQVTVSS”, which “polyreactivity (PSR sort gate)” value is on record?
The value was “low polyreactivity”.

For “QVQLVESGGGLVQAGGSLRLSCAASGLIFYYYAMGWYRQAPGKERELVAAITRGGRTYYADSVKGRFTISRDNAKNTVYLQMNSLKPEDTAVYYCAAGWYQGFDYWGQGTQVTVSS”, which “polyreactivity (PSR sort gate)” value is on record?
Its value is “high polyreactivity”.

With “QVQLVESGGGLVQAGGSLRLSCAASGSTFQHYAMGWYRQAPGKERELVAAITNTGGSTYYADSVKGRFTISRDNAKNTVYLQMNSLKPEDTAVYYCATVGRRYGYPGYYWGQGTQVTVSS” as the sequence, how does the “polyreactivity (PSR sort gate)” value read?
Its value is “low polyreactivity”.

For “QVQLVESGGGLVHAVGSLRLSCAASGRTFISYAMGWYRQAPGKERELVAAISKYGGRTYYADSVKGRFTISRDNAKNTVYLQKISLKPEDTAVYYCAAVKTYLDYSSTSYDYWGQGTQVTVSS”, which “polyreactivity (PSR sort gate)” value is on record?
Its value is “high polyreactivity”.

For “QVQLGESGGGLVQAGGSLRLSCAASGFTFYTYAMGLYRQAPGKERELVATISSGGRTNYADSVKGRFTISRDNAKNTVYLQMNSLKPEDPAVFYCNASPPTLEGYWGQGTQVTVSS”, which “polyreactivity (PSR sort gate)” value is on record?
Its value is “low polyreactivity”.

Which “polyreactivity (PSR sort gate)” value does the source give for “QVQLVQSGGGLVQAGGSLRISCAPSGLTCNGNAMGWYRQAPGKEREMVAAISSSGGTTYYADSVKGRFTISRDNAKNTVYLEMNSLKPEDTAVSYCAARPSGGYESTRTRDYWGQGTQVNVSS” here?
The value was “low polyreactivity”.

With “QVQLVESGGGLVQAGGSLRLSCAASGSTFKRYAMGWYRQAPGKERELVAAITNGDRTNYADSVKGRFTISRDNAKNTVYLHMNSLKPEDTALYYCAAAYSRYTSRFYYWGQGTQVTVSS” as the sequence, how does the “polyreactivity (PSR sort gate)” value read?
The value was “high polyreactivity”.

With “QVQLVESGGGLVQAGGSLRLSCAASGYTFDPYDMGRYRQAPGKERELVASISWSGGDTYYADSVKGRFTISRDNAKNTVYLQMNSLKPEDTAVYYCAADRYIPRSIIMDYWGQGTQVTVSS” as the sequence, how does the “polyreactivity (PSR sort gate)” value read?
Its value is “low polyreactivity”.

For “QVQLVESGGGLVQAGGSLRLSCAASGLFFSYYAMGWYRQAPGKERELVAAINSGGSTYYADSVKGRFTISRDNAKNTVYLQMNSLKPEDTAVYYCAAHLWYHGHLFDYWGQGTQVTVSS”, which “polyreactivity (PSR sort gate)” value is on record?
Its value is “high polyreactivity”.

With “QVQLVESGGGLVQAGGSLRLSCAASGSTFYEYAMGWYRQAPGKERELVAAIDERGGNTYYADSVKGRFTISRDNAKNTVYLQMNSLKPEVTAVYYCAADAYPFYQSYYPFEYWGQGTQVTVSS” as the sequence, how does the “polyreactivity (PSR sort gate)” value read?
The value was “low polyreactivity”.

For “QVQLVESGGGLVQAGGSLRLSCAASGLIIPAYAMGWYRQAPGKEREMVATITWRGGSTYYADSVKGRFTISRDNAKNTVYLQMNSLKPEDTAVDYCATRPRYYYFRYDYWGQGSQVTVSS”, which “polyreactivity (PSR sort gate)” value is on record?
The value was “high polyreactivity”.

Which “polyreactivity (PSR sort gate)” value does the source give for “QVQLVESGGGLVQAGGSLRLSCAASGLIFYYYTMGWYRQAPGKERELVARITSSGGRTYYADSVKGRFTISRDNAKNTVYLQMNSLKPEDTAVYYCNARVPRYNGGSTMEYWGQGTQVTVSS” here?
The value was “high polyreactivity”.

Which “polyreactivity (PSR sort gate)” value does the source give for “QVQLVESWGGLVQAGGSLRLSCAASGLIFYYNAMAWYRQAPGKERELVAAISRRGGGTYYADSVKGRFTISRDNAKNTVYLLMNSLKPEDTAVYYCAAGSPFSPGKYDYWGQGTQVSVSS” here?
Its value is “high polyreactivity”.

For “QVQLVESGGGLVQAGGSLRLSCAASGSTYRGYAMGWYRQAPGKERELVAAISWSGAATYYADSVKGRFTISRDNAKNTVYLQMNSLKPEDTAVYYCAKVARQNWFRYNYDYWGQGTQVTVSS”, which “polyreactivity (PSR sort gate)” value is on record?
The value was “high polyreactivity”.

With “QVQLVESGGGLVQAGGSLRLSCAASGSIFPSYDMGWYRQAPGKERELVAAIRSGGNTTYADSVKGRFTISRDNAKNTVYLQMNSLKPEDTAVYYCAKGYYYYSTVQFYYWGQGTQVTVSS” as the sequence, how does the “polyreactivity (PSR sort gate)” value read?
Its value is “low polyreactivity”.

With “QVQLVESGGGLVQAGGSLRLSCAASGSTFVDNDMGWYRQAPGKERELVAAIDQSGGSTSYADSVKGRFTISRDNAKNTVYLQMNSLKPEDTAVYYCATPSYTTAYVEGDYWGQGTQVTVSS” as the sequence, how does the “polyreactivity (PSR sort gate)” value read?
The value was “low polyreactivity”.

For “QVQLVESGGGLVQAGGSLRLSCAASGFTITIYAMGWYRQAPGKERELVATISGRAGRTYYADSVKGRFTISRDNAKNTVYLQMNSLKPEDTAVYYCNAGQWRYPGLYYYWGQGTQVTVSS”, which “polyreactivity (PSR sort gate)” value is on record?
Its value is “high polyreactivity”.

Which “polyreactivity (PSR sort gate)” value does the source give for “QVQLVESGGGLVQAGASLRLSCAASGNILRGYAMRWYRQAPGKERELVAAINRGGGSTYYADSVKVRFTISRDNAKNTVYLQMNSLKPEDTAVYYCAARYPHRGYTFDYLGQGTQVTVSS” here?
Its value is “low polyreactivity”.

Which “polyreactivity (PSR sort gate)” value does the source give for “QVQLVESGGGLVQAGGSLRLSCAATGSIFDYYAMGWYRQAPGKERELVAAISLSGGITYYADSVKGRFTISRDNAKNTVYLQMNSLKPEDTEVYYCAADAIDVLYEYDRYDRRYEYWGQGTQVTVSS” here?
The value was “low polyreactivity”.

Which “polyreactivity (PSR sort gate)” value does the source give for “QVQLVESAGGLVQAGGSLRLICADSGSIFSNDAMGWYTQAPGKERELVAAITNGVSTNYADSVKGRFTISRDNAKNTVYLPMNSLIPEDTAVYYCAAVSRSYYNSYNYWGQGTQVTVSS” here?
The value was “high polyreactivity”.

With “QVQLVESGGGLVQAGGSLRLSCAASGGLFWTYAMGWYRQAPGKERELVATITSGGSTNYADSVKGRFTISRDNAKNTVYLQMNSLKPEETAVYYCNADWWWGYGYWGQGTQVTVSS” as the sequence, how does the “polyreactivity (PSR sort gate)” value read?
The value was “low polyreactivity”.

With “QVQLVESGGGLVQAGGSLRLICPASGITFVYYAMVWYRQSPGKEMELVATNTKSGVSTYYADSVKGRFTISRDNAKNTVYLQMNSLKPEDTAVYYCAKEVSYRFYWTYDYWGQGTKVTVSS” as the sequence, how does the “polyreactivity (PSR sort gate)” value read?
Its value is “low polyreactivity”.

Which “polyreactivity (PSR sort gate)” value does the source give for “QVQLVESGGGLVQAGGSLRLSCAASGLTFVAYAMGWYRQAPGKERELVASISSRTGGTSYADSVKGRFTISRDNAKNTVYLQMNSLKPEDTAVYYCNAAARRYTSVFYTSGYTFDYWGQGTQVTVSS” here?
Its value is “low polyreactivity”.
